Literature values in paper PMC6189303.
pKd: −log10 of the molar value.

Target: L1-CAM (UniProt P32004)
Chain of UniProt P32004 (P32004 20-1120): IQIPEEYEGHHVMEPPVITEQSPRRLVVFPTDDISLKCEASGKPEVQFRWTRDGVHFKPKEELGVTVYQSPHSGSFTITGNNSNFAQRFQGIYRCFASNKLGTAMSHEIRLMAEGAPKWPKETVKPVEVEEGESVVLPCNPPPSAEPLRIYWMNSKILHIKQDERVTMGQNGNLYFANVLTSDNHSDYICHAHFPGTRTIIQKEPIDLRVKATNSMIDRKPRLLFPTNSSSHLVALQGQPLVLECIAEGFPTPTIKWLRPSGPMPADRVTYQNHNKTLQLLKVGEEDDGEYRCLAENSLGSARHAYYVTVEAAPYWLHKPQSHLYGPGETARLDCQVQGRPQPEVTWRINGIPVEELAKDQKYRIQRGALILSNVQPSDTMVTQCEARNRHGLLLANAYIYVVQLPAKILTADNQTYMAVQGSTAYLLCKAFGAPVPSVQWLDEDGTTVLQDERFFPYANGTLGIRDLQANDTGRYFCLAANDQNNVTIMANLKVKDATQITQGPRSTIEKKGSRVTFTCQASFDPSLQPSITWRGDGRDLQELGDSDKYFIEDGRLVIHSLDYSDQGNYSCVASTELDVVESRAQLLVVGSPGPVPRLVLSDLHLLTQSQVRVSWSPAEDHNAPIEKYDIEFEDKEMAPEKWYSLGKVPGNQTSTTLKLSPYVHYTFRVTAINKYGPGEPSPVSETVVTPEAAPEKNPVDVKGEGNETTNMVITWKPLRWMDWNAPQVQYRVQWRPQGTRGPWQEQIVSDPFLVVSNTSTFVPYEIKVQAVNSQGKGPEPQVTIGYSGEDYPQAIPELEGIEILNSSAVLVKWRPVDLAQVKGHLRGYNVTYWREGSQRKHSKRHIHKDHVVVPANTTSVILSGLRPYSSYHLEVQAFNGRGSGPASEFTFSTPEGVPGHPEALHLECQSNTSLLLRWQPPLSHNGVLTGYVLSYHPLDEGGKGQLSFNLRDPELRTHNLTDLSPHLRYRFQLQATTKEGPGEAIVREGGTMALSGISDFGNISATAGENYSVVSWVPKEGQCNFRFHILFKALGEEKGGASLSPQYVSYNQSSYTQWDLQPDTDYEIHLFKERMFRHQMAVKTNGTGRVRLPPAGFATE

pKd: 9.00
Substance: Neurocan (from UniProt O14594)
